Data on one substance can be found in patent US5951979.

In the experiment the target is tyrosine phosphorylated ^32 P-labelled RCM-lysozyme (Gallus gallus (Chicken)) (UniProt P00698).

On to “full length PTP-PEST D199A (from UniProt Q05209) (enzyme)”, for which the specific activity with tyrosine phosphorylated RCM-Lysozyme as substrate (fold lower than the wild type enzyme) came to 10000.
